Reference: US5747275, “Protein kinase required for RAS signal transduction” (The Regents of the University of California, dated 1998)

Columns and labels:
[1] = biological target: Dsor1 (D-MEK) (Drosophila, UniProt Q24324); test: yeast two-hybrid
[2] = biological target: Drosophila Ras1 (Drosophila, UniProt P08646); test: yeast two-hybrid system or bacterially-expressed fusion proteins

B1: Drosophila melanogaster kinase suppressor of ras (Ksr) (enzyme)
chain: MSSNNNAPASAPDTGSTNANDPISGSLSVDSNLVIIQDMIDLSANHLEGLRTQCAISSTLTQQEIRCLESKLVRYFSELLLAKMRLNERIPANGLVPHTTGNELRQWLRVVGLSQGTLTACLARLTTLEQSLRLSDEEIRQLLADSPSQREEEELRRLTRAMQNLRKCMESLESGTAASNNDPEQWHWDSWDRPTHIHRGSVGNIGLGNNSTASPRTHHRQHGVKGKNSALANSTNFKSGRQSPSATEELNSTQGSQLTLTLTPSPPNSPFTPSSGLSSSLNGTPQRSRGTPPPARKHQTLLSQSHVQVDGEQLARNRLPTDPSTDSHSSTSSDIFVDPNTNASSGGSSSNVLMVPCSPGVGHVGMGHAIKHRFTKALGFMATCTLCQKQVFHRWMKCTDCKYICHKSCAPHVPPSCGLPREYVDEFRHIKEQGGYASLPHVHGAAKGSPLVKKSTLGKPLHQQHGDSSSPSSSCTSSTPSSPALFQQRERELDQAGSSSSANLLPTPSLGKHQPSQFNFPNVTVTSSGGSGGVSLISNEPVPEQFPTAPATANGGLDSLVSSSNGHMSSLIGSQTSNASTAATLTGSLVNSTTTTSTCSFFPRKLSTAGVDKRTPFTSECTDTHKSNDSDKTVSLSGSASTDSDRTPVRVDSTEDGDSGQWRQNSISLKEWDIPYGDLLLLERIGQGRFGTVHRALWHGDVAVKLLNEDYLQDEHMLETFRSEVANFKNTRHENLVLFMGACMNPPYLAIVTSLCKGNTLYTYIHQRREKFAMNRTLLIAQQIAQGMGYLHAREIIHKDLRTKNIFIENGKVIITDFGLFSSTKLLYCDMGLGVPHNWLCYLAPELIRALQPEKPRGECLEFTPYSDVYSFGTVWYELICGEFTFKDQPAESIIWQVGRGMKQSLANLQSGRDVKDLLMLCWTYEKEHRPQFARLLSLLEHLPKKRLARSPSHPVNLSRSAESVF
Does B1 bind [1]?
Result: no binding

Does B1 bind [2]?
Result: no binding
